What was measured:
NR2B = molecular target: T1, NR2B (Homo sapiens, UniProt Q13224); assay: Ion channel panel (IonWorks Barracuda): NR2B; format: cell-based; conditions: 100% = no change, <100% = inhibition
T1 construct: host or cells: HEK293 or CHO
Experimental: (§1) This example describes a method for assaying ion channel activity in cells.
(§2) Peptides were screened in duplicate at final concentrations of 20 μM and 200 nM, as determined by amino acid analysis, and diluted into HEPES buffered physiological saline (HBPS). HEK293 or CHO cells from the American Type Culture Collection (ATCC) were transfected with the appropriate ion channel before use. HEK293 cells were grown in Dulbecco's Modified Eagle Medium/Nutrient Mixture F-12, and CHO cells were cultured in Ham's F-12 media. All cultures were supplemented with 10% fetal bovine serum, 100 U/ml penicillin G, 100 μg/ml streptomycin sulfate, and the appropriate selection antibiotics. Prior to use, cells were washed twice with Hank's Balanced Salt Solution, and treated with Accutase cell detachment solution (Sigma-Aldrich). Cells were then washed. Peptides and controls were incubated with cells for at least five minutes.
(§3) Percent inhibition was defined as: (1-(Ipeptide/Icontrol))×100%).
(§4) Percent values were calculated using the following formula: % activation=(IPeptide/Icontrol)×100%, where IPeptide is the current produced by co-application a peptide with agonist, and Icontrol refers to the current produced by stimulation in control. Control used for each ion channel is the reference compound matched to a particular channel, as illustrated in TABLE 10 below.

NR2A = molecular target: T2, NR2A (Homo sapiens, UniProt Q12879); assay: Ion channel panel (IonWorks Barracuda): NR2A; format: cell-based; conditions: 100% = no change, <100% = inhibition
T2 construct: host or cells: HEK293 or CHO
Experimental: as §1, §2, §3, §4

α4β2 = molecular target: T3, α4β2 (Homo sapiens, UniProt P17787+P43681); assay: Ion channel panel (IonWorks Barracuda): α4β2; format: cell-based; conditions: 100% = no change, <100% = inhibition
T3 construct: host or cells: HEK293 or CHO
Experimental: as §1, §2, §3, §4

Kv1.2 = molecular target: T4, Kv1.2 (Homo sapiens, UniProt P16389); assay: cell-based; format: cell-based; conditions: 100% = no change, <100% = inhibition
T4 construct: host or cells: HEK293 or CHO
Experimental: as §1, §2, §3, §4

Kv1.1 = molecular target: T5, Kv1.1 (Homo sapiens, UniProt Q09470); assay: cell-based; format: cell-based; conditions: 100% = no change, <100% = inhibition
T5 construct: host or cells: HEK293 or CHO
Experimental: as §1, §2, §3, §4

Kv1.3 = molecular target: T6, Kv1.3 (Homo sapiens, UniProt P22001); assay: cell-based; format: cell-based; conditions: 100% = no change, <100% = inhibition
T6 construct: host or cells: HEK293 or CHO
Experimental: as §1, §2, §3, §4

5HT3a = molecular target: T7, 5HT3a (Homo sapiens, UniProt P46098); assay: Ion channel panel (IonWorks Barracuda): 5HT3a; format: cell-based
T7 construct: host or cells: HEK293 or CHO
T7 sequence (P46098 whole entry, looked up): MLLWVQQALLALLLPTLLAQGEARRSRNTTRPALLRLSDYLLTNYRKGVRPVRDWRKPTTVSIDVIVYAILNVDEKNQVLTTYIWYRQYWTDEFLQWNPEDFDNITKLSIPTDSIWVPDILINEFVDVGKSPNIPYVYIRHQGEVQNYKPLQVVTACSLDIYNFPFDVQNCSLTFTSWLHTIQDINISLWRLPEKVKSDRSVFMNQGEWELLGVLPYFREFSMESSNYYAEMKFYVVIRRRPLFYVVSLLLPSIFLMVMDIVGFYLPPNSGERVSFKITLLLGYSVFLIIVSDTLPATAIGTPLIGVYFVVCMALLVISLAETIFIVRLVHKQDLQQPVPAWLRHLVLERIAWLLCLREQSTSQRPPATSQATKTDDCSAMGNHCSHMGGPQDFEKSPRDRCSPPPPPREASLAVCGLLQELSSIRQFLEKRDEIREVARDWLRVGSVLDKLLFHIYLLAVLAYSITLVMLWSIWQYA
Experimental: as §1, §2, §3, §4

GABA = assay: Ion channel panel (IonWorks Barracuda): GABA; format: cell-based; conditions: 100% = no change, <100% = inhibition
Experimental: as §1, §2, §3, §4

α3β4 = molecular target: T8, α3β4 (Homo sapiens, UniProt P30926+P32297); assay: Ion channel panel (IonWorks Barracuda): α3β4; format: cell-based; conditions: 100% = no change, <100% = inhibition
T8 construct: host or cells: HEK293 or CHO
Experimental: as §1, §2, §3, §4

TRPA1 = molecular target: T9, TRPA1 (Homo sapiens, UniProt O75762); assay: Ion channel panel (IonWorks Barracuda): TRPA1; format: cell-based; conditions: 100% = no change, <100% = inhibition
T9 construct: host or cells: HEK293 or CHO
Experimental: as §1, §2, §3, §4

Nav1.5 = Nav1.5 (Homo sapiens, UniProt Q14524); assay: in vitro; conditions: 100% = no change; for Activity of Nav1.5 with peptide, expressed as a percentage of the reference compound: peptide at 0.2 μM; for Activity of Nav1.5 with peptide (percentage of the reference compound): peptide at 20 μM
Experimental: as §1, §2, §3, §4

hERG = hERG (Homo sapiens, UniProt Q12809); assay: in vitro; conditions: 100% = no change, <100% = inhibition
Experimental: as §1, §2, §3, §4

Kir2.1 = molecular target: T10, Kir2.1 (Homo sapiens, UniProt P63252); assay: Ion channel panel (IonWorks Barracuda): Kir2.1; format: cell-based; conditions: 100% = no change, <100% = inhibition
T10 construct: host or cells: HEK293 or CHO
Experimental: as §1, §2, §3, §4

Cav2.2 = molecular target: T11, Cav2.2 (Homo sapiens, UniProt Q00975); assay: cell-based; conditions: 100% = no change, <100% = inhibition
T11 construct: host or cells: HEK293 or CHO
Experimental: as §1, §2, §3, §4

Cav2.1 = molecular target: T12, Cav2.1 (Homo sapiens, UniProt O00555); assay: cell-based; conditions: 100% = no change, <100% = inhibition
T12 construct: host or cells: HEK293 or CHO
Experimental: as §1, §2, §3, §4

Kv2.1 = molecular target: T13, Kv2.1 (Homo sapiens, UniProt Q14721); assay: cell-based; conditions: 100% = no change, <100% = inhibition
T13 construct: host or cells: HEK293 or CHO
Experimental: as §1, §2, §3, §4

Nav1.7 = molecular target: T14, Nav1.7 (Homo sapiens, UniProt Q15858); assay: cell-based; format: cell-based; conditions: 100% = no change; for Activity of Nav1.7 with peptide, expressed as a percentage of the reference compound: peptide at 0.2 μM; for Activity of Nav1.7 with peptide (percentage of the reference compound): peptide at 20 μM
T14 construct: host or cells: HEK293 or CHO
Experimental: as §1
as §2, with “Peptides were screened in duplicate at final concentrations of 20 μM and 200 nM, as determined by amino acid analysis, and diluted into HEPES buffered physiological saline (HBPS).” left out
as §3, §4

TRPV1 = molecular target: T15, TRPV1 (Homo sapiens, UniProt Q8NER1); assay: Ion channel panel (IonWorks Barracuda): TRPV1; format: cell-based; conditions: 100% = no change, <100% = inhibition
T15 construct: host or cells: HEK293 or CHO
Experimental: as §1, §2, §3, §4

[1] = first of two Nav1.5 columns (probably TP1)
[2] = second of two Nav1.5 columns (probably TP2)
[3] = first of two Nav1.7 columns (probably TP1)
[4] = second of two Nav1.7 columns (probably TP2)

Chain of Nav1.5 (Q14524 whole entry): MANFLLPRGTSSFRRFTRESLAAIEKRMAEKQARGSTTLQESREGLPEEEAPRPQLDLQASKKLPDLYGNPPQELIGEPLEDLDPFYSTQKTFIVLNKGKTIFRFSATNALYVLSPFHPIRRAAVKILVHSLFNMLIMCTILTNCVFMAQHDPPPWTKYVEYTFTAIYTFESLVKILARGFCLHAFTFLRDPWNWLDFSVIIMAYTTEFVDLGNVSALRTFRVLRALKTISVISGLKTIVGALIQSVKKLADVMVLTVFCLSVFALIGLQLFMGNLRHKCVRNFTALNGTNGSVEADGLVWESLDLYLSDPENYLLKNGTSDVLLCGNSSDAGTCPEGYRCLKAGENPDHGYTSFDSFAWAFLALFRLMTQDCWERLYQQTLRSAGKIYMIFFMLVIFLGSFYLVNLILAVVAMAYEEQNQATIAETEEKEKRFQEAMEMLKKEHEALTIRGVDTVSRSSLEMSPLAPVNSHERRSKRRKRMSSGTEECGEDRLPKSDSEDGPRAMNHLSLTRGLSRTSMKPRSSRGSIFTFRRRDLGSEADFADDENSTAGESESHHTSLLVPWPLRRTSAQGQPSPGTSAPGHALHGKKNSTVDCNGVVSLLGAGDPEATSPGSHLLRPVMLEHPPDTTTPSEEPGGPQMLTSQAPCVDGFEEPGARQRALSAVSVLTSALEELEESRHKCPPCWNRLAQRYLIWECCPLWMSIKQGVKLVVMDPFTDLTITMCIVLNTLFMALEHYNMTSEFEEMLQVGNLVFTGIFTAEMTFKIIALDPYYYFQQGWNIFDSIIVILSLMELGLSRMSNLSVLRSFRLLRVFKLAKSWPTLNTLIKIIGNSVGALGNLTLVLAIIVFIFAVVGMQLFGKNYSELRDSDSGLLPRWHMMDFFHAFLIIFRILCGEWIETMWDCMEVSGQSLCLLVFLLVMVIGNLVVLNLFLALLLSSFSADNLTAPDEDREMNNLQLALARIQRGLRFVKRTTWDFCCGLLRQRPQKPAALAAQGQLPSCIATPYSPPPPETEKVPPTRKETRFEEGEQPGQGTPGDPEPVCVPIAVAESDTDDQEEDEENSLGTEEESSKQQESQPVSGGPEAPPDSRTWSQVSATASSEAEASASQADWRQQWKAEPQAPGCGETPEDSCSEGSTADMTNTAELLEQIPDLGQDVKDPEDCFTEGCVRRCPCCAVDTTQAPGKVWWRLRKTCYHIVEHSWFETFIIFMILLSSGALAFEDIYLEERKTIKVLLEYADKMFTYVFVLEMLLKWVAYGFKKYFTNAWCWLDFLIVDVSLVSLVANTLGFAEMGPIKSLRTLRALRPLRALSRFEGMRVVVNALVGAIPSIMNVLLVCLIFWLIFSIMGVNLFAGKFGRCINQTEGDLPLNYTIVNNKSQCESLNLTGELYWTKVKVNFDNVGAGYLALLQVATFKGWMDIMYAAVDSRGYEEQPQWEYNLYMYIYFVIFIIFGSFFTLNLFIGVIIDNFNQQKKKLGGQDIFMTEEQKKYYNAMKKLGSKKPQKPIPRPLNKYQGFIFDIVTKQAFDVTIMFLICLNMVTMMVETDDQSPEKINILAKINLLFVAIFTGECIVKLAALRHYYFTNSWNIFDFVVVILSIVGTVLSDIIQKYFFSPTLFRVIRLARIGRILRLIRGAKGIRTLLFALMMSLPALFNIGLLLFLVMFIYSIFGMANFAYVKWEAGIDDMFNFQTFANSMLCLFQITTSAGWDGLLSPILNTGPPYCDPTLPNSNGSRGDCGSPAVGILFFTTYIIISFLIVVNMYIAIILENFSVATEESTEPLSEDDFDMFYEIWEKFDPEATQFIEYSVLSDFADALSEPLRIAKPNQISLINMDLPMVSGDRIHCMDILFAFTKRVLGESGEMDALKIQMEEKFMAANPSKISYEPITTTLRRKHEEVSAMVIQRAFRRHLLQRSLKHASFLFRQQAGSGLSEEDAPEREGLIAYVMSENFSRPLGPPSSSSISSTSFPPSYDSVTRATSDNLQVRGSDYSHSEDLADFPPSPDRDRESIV
T14 sequence (Q15858 whole entry): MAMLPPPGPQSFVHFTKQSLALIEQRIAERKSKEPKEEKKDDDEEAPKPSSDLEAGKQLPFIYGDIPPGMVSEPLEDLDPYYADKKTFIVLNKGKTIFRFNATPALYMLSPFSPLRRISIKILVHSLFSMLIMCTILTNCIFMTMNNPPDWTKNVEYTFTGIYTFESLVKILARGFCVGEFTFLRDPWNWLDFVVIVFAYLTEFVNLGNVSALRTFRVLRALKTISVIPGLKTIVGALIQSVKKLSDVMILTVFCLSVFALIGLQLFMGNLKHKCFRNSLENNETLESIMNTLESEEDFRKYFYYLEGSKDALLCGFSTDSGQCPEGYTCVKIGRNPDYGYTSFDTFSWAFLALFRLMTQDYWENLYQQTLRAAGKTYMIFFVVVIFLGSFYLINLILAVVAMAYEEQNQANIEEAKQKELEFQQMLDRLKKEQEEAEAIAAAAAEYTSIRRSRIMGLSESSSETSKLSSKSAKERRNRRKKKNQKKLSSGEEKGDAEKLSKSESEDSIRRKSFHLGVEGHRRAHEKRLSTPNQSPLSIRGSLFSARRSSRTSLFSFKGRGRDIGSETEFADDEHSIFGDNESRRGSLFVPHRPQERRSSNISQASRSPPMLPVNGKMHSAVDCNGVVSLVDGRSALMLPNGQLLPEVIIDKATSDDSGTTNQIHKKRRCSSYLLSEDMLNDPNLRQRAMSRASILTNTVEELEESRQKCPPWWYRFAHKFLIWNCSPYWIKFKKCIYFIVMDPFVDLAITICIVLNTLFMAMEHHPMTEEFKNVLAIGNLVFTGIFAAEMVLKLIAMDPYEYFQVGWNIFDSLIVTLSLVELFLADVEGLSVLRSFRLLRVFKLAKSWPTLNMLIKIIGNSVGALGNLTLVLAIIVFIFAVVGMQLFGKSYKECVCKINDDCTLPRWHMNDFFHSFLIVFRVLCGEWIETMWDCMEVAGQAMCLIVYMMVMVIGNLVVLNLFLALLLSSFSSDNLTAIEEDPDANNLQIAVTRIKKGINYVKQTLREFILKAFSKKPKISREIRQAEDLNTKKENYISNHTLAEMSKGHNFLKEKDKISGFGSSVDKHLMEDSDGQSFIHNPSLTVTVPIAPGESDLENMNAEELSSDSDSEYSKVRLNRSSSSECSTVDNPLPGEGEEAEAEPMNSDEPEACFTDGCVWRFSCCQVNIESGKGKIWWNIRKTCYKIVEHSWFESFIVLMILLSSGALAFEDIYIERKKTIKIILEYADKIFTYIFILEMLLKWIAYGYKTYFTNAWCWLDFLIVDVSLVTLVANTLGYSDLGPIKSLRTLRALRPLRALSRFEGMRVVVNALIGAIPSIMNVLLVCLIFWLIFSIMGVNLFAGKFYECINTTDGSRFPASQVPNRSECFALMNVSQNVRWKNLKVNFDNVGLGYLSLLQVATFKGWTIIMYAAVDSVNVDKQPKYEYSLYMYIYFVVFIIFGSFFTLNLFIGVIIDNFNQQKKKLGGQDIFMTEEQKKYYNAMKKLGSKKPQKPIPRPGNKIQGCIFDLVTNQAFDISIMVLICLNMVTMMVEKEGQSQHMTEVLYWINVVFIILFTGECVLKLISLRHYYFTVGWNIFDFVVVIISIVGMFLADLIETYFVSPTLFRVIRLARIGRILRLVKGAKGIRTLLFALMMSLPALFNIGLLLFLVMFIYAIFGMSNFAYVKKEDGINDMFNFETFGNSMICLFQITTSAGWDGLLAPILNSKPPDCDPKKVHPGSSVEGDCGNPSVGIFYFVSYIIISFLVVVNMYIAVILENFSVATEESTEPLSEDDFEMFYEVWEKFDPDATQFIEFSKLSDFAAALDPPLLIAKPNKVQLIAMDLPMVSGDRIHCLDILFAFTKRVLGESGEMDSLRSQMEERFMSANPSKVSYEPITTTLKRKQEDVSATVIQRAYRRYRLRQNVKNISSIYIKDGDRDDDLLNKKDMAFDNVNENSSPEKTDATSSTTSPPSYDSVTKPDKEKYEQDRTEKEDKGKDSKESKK
T5 sequence (Q09470 whole entry): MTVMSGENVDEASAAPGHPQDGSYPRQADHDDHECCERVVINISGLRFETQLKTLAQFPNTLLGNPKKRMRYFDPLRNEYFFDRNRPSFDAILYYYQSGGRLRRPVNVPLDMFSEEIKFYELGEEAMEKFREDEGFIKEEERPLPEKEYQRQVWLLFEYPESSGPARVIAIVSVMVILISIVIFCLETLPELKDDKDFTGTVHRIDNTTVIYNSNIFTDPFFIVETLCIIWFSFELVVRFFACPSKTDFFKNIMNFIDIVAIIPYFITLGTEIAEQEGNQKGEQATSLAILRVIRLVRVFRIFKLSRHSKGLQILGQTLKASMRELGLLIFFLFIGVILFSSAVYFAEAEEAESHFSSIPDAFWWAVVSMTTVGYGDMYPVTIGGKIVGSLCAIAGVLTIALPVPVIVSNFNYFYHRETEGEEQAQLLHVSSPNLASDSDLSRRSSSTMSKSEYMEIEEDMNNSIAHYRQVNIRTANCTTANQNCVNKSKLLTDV
T6 sequence (P22001 whole entry): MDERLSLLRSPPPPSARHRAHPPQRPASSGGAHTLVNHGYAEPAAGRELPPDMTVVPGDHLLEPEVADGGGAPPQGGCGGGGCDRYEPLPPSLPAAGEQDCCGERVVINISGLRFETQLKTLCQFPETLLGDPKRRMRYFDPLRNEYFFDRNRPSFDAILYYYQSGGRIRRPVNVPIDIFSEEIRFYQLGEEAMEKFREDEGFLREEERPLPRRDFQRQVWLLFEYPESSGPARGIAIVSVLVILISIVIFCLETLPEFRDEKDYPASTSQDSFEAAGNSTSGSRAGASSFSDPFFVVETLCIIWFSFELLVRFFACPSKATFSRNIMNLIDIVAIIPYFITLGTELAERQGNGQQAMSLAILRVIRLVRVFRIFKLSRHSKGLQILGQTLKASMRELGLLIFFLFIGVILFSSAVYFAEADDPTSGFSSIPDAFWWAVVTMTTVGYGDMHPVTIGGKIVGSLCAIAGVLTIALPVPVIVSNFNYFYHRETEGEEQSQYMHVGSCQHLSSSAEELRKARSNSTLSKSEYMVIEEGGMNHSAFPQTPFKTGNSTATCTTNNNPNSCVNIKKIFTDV

“30 (GSQVSTNKKCSNTSQCYKTCEKVVGVAAGKCMNGKCICYP) [compound 30]” was tested, and the “Activity of NR2B with peptide, expressed as a percentage of the reference compound” value (NR2B; peptide at 0.2 μM) was 92%, the “Activity of NR2B with peptide (percentage of the reference compound)” value (NR2B; peptide at 20 μM) was 88% and the “Activity of NR2A with peptide, expressed as a percentage of the reference compound” value (NR2A; peptide at 0.2 μM) was 111%. The “Activity of NR2A with peptide (percentage of the reference compound)” value (NR2A; peptide at 20 μM) was 98%, the “Activity of a4b2 with peptide, expressed as a percentage of the reference compound” value (α4β2; peptide at 0.2 μM) was 89% and the “Activity of a4b2 with peptide (percentage of the reference compound)” value (α4β2; peptide at 20 μM) was 92%. For the same substance, the “Activity of Kv1.2 with peptide, expressed as a percentage of the reference compound” value (Kv1.2; peptide at 0.2 μM) was 110%, the “Activity of Kv1.2 with peptide (percentage of the reference compound)” value (Kv1.2; peptide at 20 μM) was 92% and the “Activity of Kv1.1 with peptide, expressed as a percentage of the reference compound” value (Kv1.1; peptide at 0.2 μM) was 98%. For the same substance, the “Activity of Kv1.1 with peptide (percentage of the reference compound)” value (Kv1.1; peptide at 20 μM) was 102%, the “Activity of Kv1.3 with peptide, expressed as a percentage of the reference compound” value (Kv1.3; peptide at 0.2 μM) was 89% and the “Activity of Kv1.3 with peptide (percentage of the reference compound)” value (Kv1.3; peptide at 20 μM) was 71%. The “Activity of 5HT3a with peptide (percentage of the reference compound)” value (5HT3a) was 91%, the “Activity of 5HT3a with peptide, expressed as a percentage of the reference compound” value (5HT3a) was 71% and the “Activity of GABA with peptide, expressed as a percentage of the reference compound” value (GABA; peptide at 0.2 μM) was 102%. For the same substance, the “Activity of GABA with peptide (percentage of the reference compound)” value (GABA; peptide at 20 μM) was 114%, the “Activity of a3b4 with peptide, expressed as a percentage of the reference compound” value (α3β4; peptide at 0.2 μM) was 91% and the “Activity of a3b4 with peptide (percentage of the reference compound)” value (α3β4; peptide at 20 μM) was 101%. For the same substance, the “Activity of TRPA1 with peptide, expressed as a percentage of the reference compound” value (TRPA1; peptide at 0.2 μM) was 118%, the “Activity of TRPA1 with peptide (percentage of the reference compound)” value (TRPA1; peptide at 20 μM) was 111% and the “Activity of Nav1.5 with peptide, expressed as a percentage of the reference compound” value (Nav1.5; [1]) was 105%. For the same substance, the “Activity of Nav1.5 with peptide, expressed as a percentage of the reference compound” value (Nav1.5; [2]) was 102%, the “Activity of Nav1.5 with peptide (percentage of the reference compound)” value (Nav1.5; [1]) was 94% and the “Activity of Nav1.5 with peptide (percentage of the reference compound)” value (Nav1.5; [2]) was 96%. For the same substance, the “Activity of hERG with peptide, expressed as a percentage of the reference compound” value (hERG; peptide at 0.2 μM) was 95%, the “Activity of hERG with peptide (percentage of the reference compound)” value (hERG; peptide at 20 μM) was 95% and the “Activity of Kir2.1 with peptide, expressed as a percentage of the reference compound” value (Kir2.1; peptide at 0.2 μM) was 102%. The “Activity of Kir2.1 with peptide (percentage of the reference compound)” value (Kir2.1; peptide at 20 μM) was 93%, the “Activity of Cav2.2 with peptide, expressed as a percentage of the reference compound” value (Cav2.2; peptide at 0.2 μM) was 96% and the “Activity of Cav2.2 with peptide (percentage of the reference compound)” value (Cav2.2; peptide at 20 μM) was 101%. For the same substance, the “Activity of Cav2.1 with peptide, expressed as a percentage of the reference compound” value (Cav2.1; peptide at 0.2 μM) was 111%, the “Activity of Cav2.1 with peptide (percentage of the reference compound)” value (Cav2.1; peptide at 20 μM) was 103% and the “Activity of Kv2.1 with peptide, expressed as a percentage of the reference compound” value (Kv2.1; peptide at 0.2 μM) was 107%. The “Activity of Kv2.1 with peptide (percentage of the reference compound)” value (Kv2.1; peptide at 20 μM) was 106%, the “Activity of Nav1.7 with peptide, expressed as a percentage of the reference compound” value (Nav1.7; [3]) was 103% and the “Activity of Nav1.7 with peptide, expressed as a percentage of the reference compound” value (Nav1.7; [4]) was 125%. For the same substance, the “Activity of Nav1.7 with peptide (percentage of the reference compound)” value (Nav1.7; [3]) was 84%, the “Activity of Nav1.7 with peptide (percentage of the reference compound)” value (Nav1.7; [4]) was 54% and the “Activity of TRPV1 with peptide, expressed as a percentage of the reference compound” value (TRPV1; peptide at 0.2 μM) was 107%. For the same substance, the “Activity of TRPV1 with peptide (percentage of the reference compound)” value (TRPV1; peptide at 20 μM) was 84%.
